The target in assay [1] is hGPC3-C fragment (AA359-580) (human) (UniProt P51654). The assay is described as follows: flow cytometry, intracellular staining of 293T cells transfected with hGPC3-C; gate set on untransfected cells. On the technique in general: A flow cytometer gives signals particle by particle.
Assay [2] shares this target. The assay is described as follows: flow cytometry, intracellular staining of 293 cells transfected with hGPC3-C; gate set on untransfected cells.

hGPC3-C fragment (AA359-580) (human), sequence (P51654 359-580 limits assumed, form in doubt): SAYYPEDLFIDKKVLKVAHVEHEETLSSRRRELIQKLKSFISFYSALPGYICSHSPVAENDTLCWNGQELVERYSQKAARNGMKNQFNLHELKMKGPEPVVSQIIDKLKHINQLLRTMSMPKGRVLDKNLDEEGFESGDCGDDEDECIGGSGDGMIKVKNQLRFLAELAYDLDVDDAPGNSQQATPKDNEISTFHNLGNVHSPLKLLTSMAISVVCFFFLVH

B1: mAb 6G11 (mouse hybridoma antibody) (antibody, V domains shown)
VH: QVQLQQPGSELVRPGASVKLSCKASGYTFTSCWMHWVKQRPGQGLEWIGNIYPGYGNTNYDEKFKNKATLTVDTSSSTAYMQLSGLTSEDSAVYYCTRGSYLYAMDYWGQGTSVTVSS
VL: DIQMNQSPSSLSASLGDTITITCHASQNINVWLSWYQQKPGNIPKLLIYKASNLHTGVPSRFSGSGSGTGFTLTISSLQPEDIATYYCQQGQSYPWTFGGGTKLEIKR
As for B1, the % of events in gate M1 in assay [1] was 4.03%. Moreover, the % of cells in the positive gate in assay [2] came out at 0.75%.

B2: mAb 12D7 (mouse hybridoma antibody) (antibody, V domains shown)
VH: QVQLQQPGSELVRPGASVKLSCKASGYTFTSYWMHWVKQRLGQGLEWIGNIYPGSGSTNYDEKFKSKGTLTVDTSSSTAYMHLSSLTSEDSAVYYCTRGDYDWVFAYWGQGTLVTVSA
VL: DIVMTQSQKFMSTSVGDRVSVTCKASQNVGTNVAWYQQKPGQSPKALIYSASYRYSGVPDRFTGSGSGTDFTLTISNVQSEDLAEYFCQQYNSYPLTFGAGTKLELKR
In turn, B2 came in with a % of events in gate M1 in assay [1] of 0.47%. Also, in assay [2], the % of cells in the positive gate is 0.92%.
